According to article PMC7340262, “Structural insights into the regulation of SigB activity by RsbV and RsbW” (IUCrJ, 2020):

T1: SigB (residues 1–262) (Bacillus subtilis strain 168, UniProt P06574 1-262)
T1 construct: RNA polymerase sigma-B factor SigB, Bacillus subtilis strain 168, residues 1-262; also called alternative sigma factor SigB; source: E. coli BL21 Star (DE3), co-expressed with RsbW (modified pETDuet-1), co-purified as RsbW–SigB complex
T1 sequence (looked up): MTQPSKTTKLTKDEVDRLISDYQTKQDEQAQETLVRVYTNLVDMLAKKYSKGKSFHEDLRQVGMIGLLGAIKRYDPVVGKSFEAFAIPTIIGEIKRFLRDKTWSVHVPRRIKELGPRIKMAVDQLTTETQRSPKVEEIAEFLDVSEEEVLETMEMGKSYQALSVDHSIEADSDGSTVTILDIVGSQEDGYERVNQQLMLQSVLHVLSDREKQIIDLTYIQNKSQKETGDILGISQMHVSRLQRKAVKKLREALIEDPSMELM

B1: RsbW (residues 1–160), expressed alone (natural protein, Bacillus subtilis strain 168, UniProt P17904 1-160, looked up)
chain: MKNNADYIEMKVPAQPEYVGIIRLTLSGVASRMGYTYDEIEDLKIAVSEACTNAVQHAYKEDKNGEVSIRFGVFEDRLEVIVADEGDSFDFDQKQQDLGPYTPSHTVDQLSEGGLGLYLMETLMDEVRVQNHSGVTVAMTKYLNGERVDHDTTIKNYETN
notes: Anti-sigma-B factor RsbW, Bacillus subtilis strain 168, residues 1-160; 'RsbV and RsbW alone were similarly expressed and purified following the same procedures'; also called RsbW alone; source: E. coli BL21 Star (DE3), modified pET-28b, purified (HisTrap, TEV cleavage, Superdex 75 SEC); not shown: His6, N-terminal, cleaved; thioredoxin, N-terminal, cleaved
B2: RsbW (residues 1–160), co-expressed with SigB (natural protein, Bacillus subtilis strain 168, UniProt P17904 1-160, looked up)
chain: B1 chain
notes: Anti-sigma-B factor RsbW, Bacillus subtilis strain 168, residues 1-160; source: E. coli BL21 Star (DE3), co-expressed with SigB (modified pETDuet-1), co-purified as RsbW–SigB complex
B3: RsbW (residues 1–160), co-expressed with RsbV (natural protein, Bacillus subtilis strain 168, UniProt P17904 1-160, looked up)
chain: B1 chain
notes: Serine-protein kinase / anti-sigma-B factor RsbW, Bacillus subtilis strain 168, residues 1-160 (called full-length); Four copies stand in the RsbV–RsbW octamer; also called full-length RsbW; anti-sigma factor RsbW
B4: RsbW_(5–145) (residues 5–145) (domain or fragment, Bacillus subtilis strain 168, UniProt P17904 5-145, looked up)
chain: ADYIEMKVPAQPEYVGIIRLTLSGVASRMGYTYDEIEDLKIAVSEACTNAVQHAYKEDKNGEVSIRFGVFEDRLEVIVADEGDSFDFDQKQQDLGPYTPSHTVDQLSEGGLGLYLMETLMDEVRVQNHSGVTVAMTKYLNG
notes: Residues 59–64 and 85–113 (monoclinic) or 86–109 (hexagonal) are not visible in the crystal structures; also called truncated RsbW
B5: RsbV (residues 1–109) (natural protein, Bacillus subtilis strain 168, UniProt P17903 1-109, looked up)
chain: MNINVDVKQNENDIQVNIAGEIDVYSAPVLREKLVPLAEQGADLRICLKDVSYMDSTGLGVFVGTFKMVKKQGGSLKLENLSERLIRLFDITGLKDIIDISAKSEGGVQ
notes: Anti-anti-sigma-B factor RsbV, Bacillus subtilis strain 168, residues 1-109 (called full-length); Tag removed with TEV protease; also called full-length RsbV; anti-anti-sigma factor RsbV; source: E. coli BL21 Star (DE3); co-expressed with RsbW (modified pETDuet-1) or expressed alone (modified pET-28b); purified (HisTrap, TEV cleavage, SEC); not shown: His6, N-terminal, cleaved; thioredoxin, …

How the values were obtained:
[1] = target: the molecule itself; experiment: AF4-MALS; co-purified complexes or RsbW alone in phosphate-buffered saline pH 7.4; 50 µl injected
[2] = target: T1, SigB (residues 1–262); experiment: as above; conditions: both partners purified
[3] = target: the molecule itself; experiment: crystal structure; RsbV_(1–104)–RsbW_(5–145) complex; monoclinic crystals (25% PEG 1500, 100 mM SPG pH 8.5, 3.4 Å) and hexagonal crystals (20% PEG 3350, 200 mM potassium formate, excess ADP, 3.1 Å), 20°C
[4] = target: B3; experiment: AF4-MALS; co-purified complexes or RsbW alone in phosphate-buffered saline pH 7.4; 50 µl injected; conditions: both partners purified

Binder	stoichiometry N [1]	further results
B1	4	–
B2	4	stoichiometry N [2]: 2 RsbW per SigB
B3	4	–
B4	–	stoichiometry N [3]: 4
B5	–	stoichiometry N [4]: 1 RsbV per RsbW
